B1: GpH7-A5/GpH7-B3 variant D265_13S/GpL16-k0 (antibody, human IgG1, kappa)
heavy 1: not shown
heavy 2: not shown
light: DIVMTQSPLSLPVTPGEPASISCQASESLVHSNRNTYLHWYLQKPGQSPQLLIYKVSNRFSGVPDRFSGSGSGTDFTLKISRVEAEDVGVYYCSQNTHVPPTFGQGTKVEIERTVAAPSVFIFPPSDEQLKSGTASVVCLLNNFYPREAKVQWKVDNALQSGNSQESVTEQDSKDSTYSLSSTLTLSKADYEKHKVYACEVTHQGLSSPVTKSFNRGEC
notes: Heterodimerized anti-glypican-3 IgG1; substitution in only one H chain (the GpH7-B3 chain); also called He Ab
B2: GpH7-A5/GpH7-B3 variant D270_01G/GpL16-k0 (antibody, human IgG1, kappa)
heavy 1: not shown
heavy 2: not shown
light: DIVMTQSPLSLPVTPGEPASISCQASESLVHSNRNTYLHWYLQKPGQSPQLLIYKVSNRFSGVPDRFSGSGSGTDFTLKISRVEAEDVGVYYCSQNTHVPPTFGQGTKVEIERTVAAPSVFIFPPSDEQLKSGTASVVCLLNNFYPREAKVQWKVDNALQSGNSQESVTEQDSKDSTYSLSSTLTLSKADYEKHKVYACEVTHQGLSSPVTKSFNRGEC
notes: He Ab: the mutation stands only in the GpH7-B3-derived H chain; also called He Ab D270G
B3: GpH7-A5/GpH7-B3 variant D265_16H/GpL16-k0 (antibody, human IgG1, kappa)
heavy 1: not shown
heavy 2: not shown
light: DIVMTQSPLSLPVTPGEPASISCQASESLVHSNRNTYLHWYLQKPGQSPQLLIYKVSNRFSGVPDRFSGSGSGTDFTLKISRVEAEDVGVYYCSQNTHVPPTFGQGTKVEIERTVAAPSVFIFPPSDEQLKSGTASVVCLLNNFYPREAKVQWKVDNALQSGNSQESVTEQDSKDSTYSLSSTLTLSKADYEKHKVYACEVTHQGLSSPVTKSFNRGEC
notes: as for B1
B4: GpH7-A5/GpH7-B3 variant H268_06M/GpL16-k0 (antibody, human IgG1, kappa)
heavy 1: not shown
heavy 2: not shown
light: DIVMTQSPLSLPVTPGEPASISCQASESLVHSNRNTYLHWYLQKPGQSPQLLIYKVSNRFSGVPDRFSGSGSGTDFTLKISRVEAEDVGVYYCSQNTHVPPTFGQGTKVEIERTVAAPSVFIFPPSDEQLKSGTASVVCLLNNFYPREAKVQWKVDNALQSGNSQESVTEQDSKDSTYSLSSTLTLSKADYEKHKVYACEVTHQGLSSPVTKSFNRGEC
notes: as for B1
B5: GpH7-A5/GpH7-B3 variant H268_08L/GpL16-k0 (antibody, human IgG1, kappa)
heavy 1: not shown
heavy 2: not shown
light: DIVMTQSPLSLPVTPGEPASISCQASESLVHSNRNTYLHWYLQKPGQSPQLLIYKVSNRFSGVPDRFSGSGSGTDFTLKISRVEAEDVGVYYCSQNTHVPPTFGQGTKVEIERTVAAPSVFIFPPSDEQLKSGTASVVCLLNNFYPREAKVQWKVDNALQSGNSQESVTEQDSKDSTYSLSSTLTLSKADYEKHKVYACEVTHQGLSSPVTKSFNRGEC
notes: as for B1
B6: GpH7-A5/GpH7-B3 variant H268_04F/GpL16-k0 (antibody, human IgG1, kappa)
heavy 1: not shown
heavy 2: not shown
light: DIVMTQSPLSLPVTPGEPASISCQASESLVHSNRNTYLHWYLQKPGQSPQLLIYKVSNRFSGVPDRFSGSGSGTDFTLKISRVEAEDVGVYYCSQNTHVPPTFGQGTKVEIERTVAAPSVFIFPPSDEQLKSGTASVVCLLNNFYPREAKVQWKVDNALQSGNSQESVTEQDSKDSTYSLSSTLTLSKADYEKHKVYACEVTHQGLSSPVTKSFNRGEC
notes: as for B1
B7: GpH7-A5/GpH7-B3 variant D265_19Q/GpL16-k0 (antibody, human IgG1, kappa)
heavy 1: not shown
heavy 2: not shown
light: DIVMTQSPLSLPVTPGEPASISCQASESLVHSNRNTYLHWYLQKPGQSPQLLIYKVSNRFSGVPDRFSGSGSGTDFTLKISRVEAEDVGVYYCSQNTHVPPTFGQGTKVEIERTVAAPSVFIFPPSDEQLKSGTASVVCLLNNFYPREAKVQWKVDNALQSGNSQESVTEQDSKDSTYSLSSTLTLSKADYEKHKVYACEVTHQGLSSPVTKSFNRGEC
notes: as for B1
B8: GpH7-A5/GpH7-B3 variant D265_14T/GpL16-k0 (antibody, human IgG1, kappa)
heavy 1: not shown
heavy 2: not shown
light: DIVMTQSPLSLPVTPGEPASISCQASESLVHSNRNTYLHWYLQKPGQSPQLLIYKVSNRFSGVPDRFSGSGSGTDFTLKISRVEAEDVGVYYCSQNTHVPPTFGQGTKVEIERTVAAPSVFIFPPSDEQLKSGTASVVCLLNNFYPREAKVQWKVDNALQSGNSQESVTEQDSKDSTYSLSSTLTLSKADYEKHKVYACEVTHQGLSSPVTKSFNRGEC
notes: as for B1
B9: GpH7-A5/GpH7-B3 variant D265_18N/GpL16-k0 (antibody, human IgG1, kappa)
heavy 1: not shown
heavy 2: not shown
light: DIVMTQSPLSLPVTPGEPASISCQASESLVHSNRNTYLHWYLQKPGQSPQLLIYKVSNRFSGVPDRFSGSGSGTDFTLKISRVEAEDVGVYYCSQNTHVPPTFGQGTKVEIERTVAAPSVFIFPPSDEQLKSGTASVVCLLNNFYPREAKVQWKVDNALQSGNSQESVTEQDSKDSTYSLSSTLTLSKADYEKHKVYACEVTHQGLSSPVTKSFNRGEC
notes: as for B1
B10: GpH7-A5/GpH7-B3 variant D265_15Y/GpL16-k0 (antibody, human IgG1, kappa)
heavy 1: not shown
heavy 2: not shown
light: DIVMTQSPLSLPVTPGEPASISCQASESLVHSNRNTYLHWYLQKPGQSPQLLIYKVSNRFSGVPDRFSGSGSGTDFTLKISRVEAEDVGVYYCSQNTHVPPTFGQGTKVEIERTVAAPSVFIFPPSDEQLKSGTASVVCLLNNFYPREAKVQWKVDNALQSGNSQESVTEQDSKDSTYSLSSTLTLSKADYEKHKVYACEVTHQGLSSPVTKSFNRGEC
notes: as for B1
B11: GpH7-A5/GpH7-B3 variant V266_05P/GpL16-k0 (antibody, human IgG1, kappa)
heavy 1: not shown
heavy 2: not shown
light: DIVMTQSPLSLPVTPGEPASISCQASESLVHSNRNTYLHWYLQKPGQSPQLLIYKVSNRFSGVPDRFSGSGSGTDFTLKISRVEAEDVGVYYCSQNTHVPPTFGQGTKVEIERTVAAPSVFIFPPSDEQLKSGTASVVCLLNNFYPREAKVQWKVDNALQSGNSQESVTEQDSKDSTYSLSSTLTLSKADYEKHKVYACEVTHQGLSSPVTKSFNRGEC
notes: as for B1
B12: GpH7-A5/GpH7-B3 variant E269_01G/GpL16-k0 (antibody, human IgG1, kappa)
heavy 1: not shown
heavy 2: not shown
light: DIVMTQSPLSLPVTPGEPASISCQASESLVHSNRNTYLHWYLQKPGQSPQLLIYKVSNRFSGVPDRFSGSGSGTDFTLKISRVEAEDVGVYYCSQNTHVPPTFGQGTKVEIERTVAAPSVFIFPPSDEQLKSGTASVVCLLNNFYPREAKVQWKVDNALQSGNSQESVTEQDSKDSTYSLSSTLTLSKADYEKHKVYACEVTHQGLSSPVTKSFNRGEC
notes: as for B1
B13: GpH7-A5/GpH7-B3 variant D270_03V/GpL16-k0 (antibody, human IgG1, kappa)
heavy 1: not shown
heavy 2: not shown
light: DIVMTQSPLSLPVTPGEPASISCQASESLVHSNRNTYLHWYLQKPGQSPQLLIYKVSNRFSGVPDRFSGSGSGTDFTLKISRVEAEDVGVYYCSQNTHVPPTFGQGTKVEIERTVAAPSVFIFPPSDEQLKSGTASVVCLLNNFYPREAKVQWKVDNALQSGNSQESVTEQDSKDSTYSLSSTLTLSKADYEKHKVYACEVTHQGLSSPVTKSFNRGEC
notes: He Ab: the mutation stands only in the GpH7-B3-derived H chain; also called He Ab D270V
B14: GpH7-A5/GpH7-B3 variant D265_20W/GpL16-k0 (antibody, human IgG1, kappa)
heavy 1: not shown
heavy 2: not shown
light: DIVMTQSPLSLPVTPGEPASISCQASESLVHSNRNTYLHWYLQKPGQSPQLLIYKVSNRFSGVPDRFSGSGSGTDFTLKISRVEAEDVGVYYCSQNTHVPPTFGQGTKVEIERTVAAPSVFIFPPSDEQLKSGTASVVCLLNNFYPREAKVQWKVDNALQSGNSQESVTEQDSKDSTYSLSSTLTLSKADYEKHKVYACEVTHQGLSSPVTKSFNRGEC
notes: as for B1

How the values were obtained:
FcγRIIa H [1] = biological target: T1, FcγRIIa H (human, UniProt P12318 34-217); test: ratio of He/Con_2aH to He/Con_2b (relative SPR binding to FcγRIIa H over that of the same antibody to FcγRIIb)
T1 construct: extracellular domain; also called FcgRIIa H type; 2aH
T1 sequence (looked up): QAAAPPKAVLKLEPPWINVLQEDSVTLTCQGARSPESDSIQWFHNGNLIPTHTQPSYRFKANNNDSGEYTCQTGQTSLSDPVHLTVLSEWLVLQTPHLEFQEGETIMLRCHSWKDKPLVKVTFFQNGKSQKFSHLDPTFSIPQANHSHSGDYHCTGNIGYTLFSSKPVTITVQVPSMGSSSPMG

FcγRIIb = biological target: T2, FcγRIIb (human, UniProt P31994 43-217); test: SPR (Biacore), antibody captured on antigen-peptide chip, FcγR as analyte; binding relative to GpH7-A5/GpH7-B3/GpL16-k0 = 100
T2 construct: extracellular domain; also called FcgRIIb; 2b
T2 sequence (looked up): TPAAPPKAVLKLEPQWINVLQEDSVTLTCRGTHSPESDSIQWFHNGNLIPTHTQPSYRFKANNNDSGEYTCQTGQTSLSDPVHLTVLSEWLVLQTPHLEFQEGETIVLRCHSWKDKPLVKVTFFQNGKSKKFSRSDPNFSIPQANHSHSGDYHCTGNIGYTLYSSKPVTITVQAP

FcγRIIa H [2] = biological target: T1, FcγRIIa H; test: as above
[3] = biological target: T3, FcγRIIIa extracellular domain with C-terminal His tag (human, UniProt P08637 17-208); test: ratio of He/Con_3a to He/Con_2b (FcγRIIIa over FcγRIIb), SPR relative binding
T3 construct: extracellular domain; also called FcgRIIIa; 3a; not shown: His tag at the C terminus
Method: The heterodimerized antibodies He Abs in which one of the H chains was introduced with an alteration were assayed for their binding activities to each activating FcγR and inhibitory FcγR according to the method described in Example 4. […] The activating FcγRs in FIGS. 26, 27, 28, and 29 are FcγRIa, FcγRIIa (R), FcγRIIa (H), and FcγRIIIa, respectively.
Analysis of interaction between objective antibody and the FcγR was carried out using Biacore T100 (GE Healthcare). HBS-EP+ (GE Healthcare) was used as the running buffer, and the measurement temperature was set to 25° C. Chips produced by immobilizing the antigen peptide by the amine coupling method to a Series S Sencor Chip CM5 (GE Healthcare), or alternatively, chips produced by allowing preliminarily biotinylated antigen peptides to interact with and immobilize onto a Series S Sensor Chip SA (certified) (GE Healthcare) were used. Antibodies of interest were captured onto an antigen peptide-immobilized chip, and allowed to interact to each FcγR diluted with running buffer. To regenerate and repeatedly use the chip, the antibodies captured on the chip were washed off by reacting 10 mM glycine-HCl, pH 1.5.

[4] = biological target: T3, FcγRIIIa extracellular domain with …; test: SPR (Biacore), antibody captured via antigen peptide, FcγR as analyte; binding relative to GpH7-A5/GpH7-B3/GpL16-k0 = 100
[5] = biological target: T4, FcγRIIb extracellular domain with C-terminal His tag (human, UniProt P31994 43-217); test: as above
T4 construct: extracellular domain; also called FcgRIIb; 2b; not shown: His tag at the C terminus
T4 sequence (looked up): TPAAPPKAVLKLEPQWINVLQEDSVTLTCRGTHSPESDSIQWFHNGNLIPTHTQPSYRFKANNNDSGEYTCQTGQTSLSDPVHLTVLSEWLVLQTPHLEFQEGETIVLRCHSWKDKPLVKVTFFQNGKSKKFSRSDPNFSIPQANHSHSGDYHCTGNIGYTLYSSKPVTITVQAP

T3 sequence (P08637 17-208): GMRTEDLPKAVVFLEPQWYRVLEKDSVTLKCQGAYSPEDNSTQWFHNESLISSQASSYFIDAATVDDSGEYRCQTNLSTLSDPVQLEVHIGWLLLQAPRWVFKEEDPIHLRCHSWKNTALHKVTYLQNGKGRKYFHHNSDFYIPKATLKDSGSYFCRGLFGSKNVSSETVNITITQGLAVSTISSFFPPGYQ

| He_2aH/2b (IIaH/IIb) (FcγRIIa H [1]) | He/Con_2b (FcγRIIb) | He/Con_2aH (FcγRIIa H [2]) | IIIa/IIb (He_3a/2b) [3] | He/Con_3a [4] | He/Con_2b [5] | Binder |
| --- | --- | --- | --- | --- | --- | --- |
| 1.75 | 11.3 % of HeCon Ab | 19.8 % of HeCon Ab | – | – | – | B1 |
| – | – | – | 1.26 | 38.5 relative (control = 100) | 30.5 relative (control = 100) | B2 |
| 1.27 | 38.3 % of HeCon Ab | 48.6 % of HeCon Ab | – | – | – | B3 |
| 1.29 | 65.7 % of HeCon Ab | 84.8 % of HeCon Ab | – | – | – | B4 |
| 1.25 | 67.8 % of HeCon Ab | 85 % of HeCon Ab | – | – | – | B5 |
| 1.24 | 89.6 % of HeCon Ab | 111 % of HeCon Ab | – | – | – | B6 |
| 1.43 | 33.4 % of HeCon Ab | 47.7 % of HeCon Ab | – | – | – | B7 |
| 1.5 | 16 % of HeCon Ab | 24.1 % of HeCon Ab | – | – | – | B8 |
| 2.01 | 6.1 % of HeCon Ab | 12.4 % of HeCon Ab | – | – | – | B9 |
| 6.07 | 0.6 % of HeCon Ab | 3.7 % of HeCon Ab | – | – | – | B10 |
| 1.91 | 0.4 % of HeCon Ab | 0.7 % of HeCon Ab | – | – | – | B11 |
| 1.39 | 51.5 % of HeCon Ab | 71.5 % of HeCon Ab | – | – | – | B12 |
| – | – | – | 1.52 | 60.3 relative (control = 100) | 39.5 relative (control = 100) | B13 |
| 2.86 | 1.1 % of HeCon Ab | 3.2 % of HeCon Ab | – | – | – | B14 |
